Measured values taken from publication PMC6829469, “A Genome-Centric Approach Reveals a Novel Glycosyltransferase from the GA A07 Strain of Bacillus thuringiensis Responsible for Catalyzing 15-O-Glycosylation of Ganoderic Acid A” (International Journal of Molecular Sciences, 2019).

Key:
[1] = system: [H][C@@]12C[C@H](O)C3=C(C(=O)C[C@]4(C)[C@@]([H])([C@H](C)CC(=O)C[C@@H](C)C(=O)O)C[C@H](O)[C@@]34C)[C@@]1(C)CCC(=O)C2(C)C; test: purified protein; settings: 10 mM UDP-glucose, 10 mM MgCl2, 50 mM Tris pH 8.0, 40 °C
Text: UPLC of GAA-15-O-beta-glucoside formation, Michaelis-Menten nonlinear fit on BsUGT489

[2] = substrate: [H][C@@]12C[C@H](O)C3=C(C(=O)C[C@]4(C)[C@@]([H])([C@H](C)CC(=O)C[C@@H](C)C(=O)O)C[C@H](O)[C@@]34C)[C@@]1(C)CCC(=O)C2(C)C; test: UPLC of GAA-15-O-beta-glucoside formation, Michaelis-Menten nonlinear fit; assay type: biochemical, Bacillus spizizenii; settings: 10 mM UDP-glucose, 10 mM MgCl2, 50 mM Tris pH 8.0, 40 °C
Text: UPLC of GAA-15-O-beta-glucoside formation, Michaelis-Menten nonlinear fit on BsUGT398

Work on BsUGT489 (Bacillus spizizenii) yielded a Km [1] of 793.96 ± 124.09 µM, a kcat [1] of 0.934 ± 0.0626 s⁻¹ and a kcat/Km [1] of 1180 ± 200 M⁻¹ s⁻¹.

B1: BsUGT398 (Bacillus spizizenii str. W23) (protein)
chain: MKTVLILNFPAEGHVNPTLGITKAFADRGYDVHYISTEKYKERLEAVGATVHLHQDLLRTTPINIASPNGILDFLKIHIKTSLDILHIVKELSKSIQFDFVYYDKFGAGELVRDYLNIPGISSSASFLFGEEHLKILPLHPDSEVPLQLDKQCEDLLLEMKQNYGVSPENMVQFMNNKGELNVVYTSRYFQPESHRFGDEFLFIGPSFPKRAEKTDFPTDKLKDEKVIYISMGTVLDETEEFFNLCIDAFSDVKGKVVIAAGEKADLTKLKQAPENFIIASYVPQLEVLEQSDVFITHGGMNSVNEGIHFNVPLVVMPHDKDQPMVAQRLTELQAGYTVSKDHVTAQSLKHAVEEVLNNDRYKEGIQKINRSFQDCMNMEEVMERIDQFIEQRK
notes: recombinant purified, obtained from the authors' previous study; GT1 family
Work on B1 yielded a Km [2] of 90.71 ± 14.86 µM, a kcat [2] of 0.14 ± 0.0051 s⁻¹ and a kcat/Km [2] of 1540 ± 259 M⁻¹ s⁻¹.
